Test results: patent US20150140001A1 (Scripps Research, published 2015)
Substitutions are numbered along the chain they refer to.

What was measured:
[1] = biological target: T1, recombinant mouse clec14a CTLD Fc fusion protein (mCTLD-Fc) (mouse; human, UniProt Q8VCP9 31-172); assay: ELISA, coated mCTLD-Fc (25 nM), 67 nM IgG
T1 construct: also called mouse CTLD-Fc; not shown: hinge and CH2-CH3 domain of human IgG1, encoded 3' of the cloning site of the modified pCEP4 vector
T1 sequence: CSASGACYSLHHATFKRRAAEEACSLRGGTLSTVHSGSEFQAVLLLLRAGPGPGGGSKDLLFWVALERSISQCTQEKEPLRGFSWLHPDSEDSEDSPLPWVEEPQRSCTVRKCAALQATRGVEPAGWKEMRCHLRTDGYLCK
Experimental: (§1) 25 nM recombinant hCTLD-Fc, mCTLD-Fc, or Fc fragment of IgG1 in PBS was added to the 96-wells of a microtiter plate. After incubation overnight at 37° C., plates were washed three times with PBS containing 0.05% (v/v) Tween 20 (PBST), and incubated with 3% (w/v) BSA in PBST for 1 hr at 37° C. Plates were then incubated with 67 nM clec14a-CTLD IgG in PBST containing 3% (w/v) BSA for 3 hr at 37° C. Plates were washed twice with PBST and incubated with horseradish […] (HRP)-conjugated anti-human lambda light chain antibody (Bethyl Laboratories, Montgomery, Tex., USA) diluted 1:1000) in PBST containing 3% (w/v) BSA, for 1 hr at 37° C.

[2] = biological target: T2, fusion protein comprising an amino acid fragment from 1st amino acid to 42nd amino acid in hCTLD (human, UniProt Q86T13 31-72); assay: epitope mapping ELISA, coated fragment-Fc 10 µg/ml, IgG 10 µg/ml
T2 construct: also called N-terminal fragment of hCTLD-Fc (1-42); not shown: Fc
T2 chain: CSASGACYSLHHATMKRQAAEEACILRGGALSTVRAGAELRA
Experimental: Each of 10 μg/ml hCTLD-Fc, Fc, or N-terminal or C-terminal fragments of hCTLD-Fc in PBS was added to 96-well plates. Plates were incubated overnight at 37° C., washed three times with PBS containing 0.05% (v/v) Tween 20 (PBST), and incubated with 3% (w/v) BSA in PBST for 1 hr at 37° C. Plates were incubated with 10 μg/ml clec14a-CTLD IgG in PBST containing 3% (w/v) BSA for 2 hr at 37° C. Following two times washings with PBST, horseradish […] (HRP)-conjugated anti-human lambda light chain antibody (1:1000; Bethyl Laboratories, TX, USA) in PBST containing 3% (w/v) BSA was incubated for 1 hr at 37° C.
For fine mapping of epitope, specificity of clec14a-CTLD IgGs to Clec14awtCTLD and the fragments of hCTLD-Fc (FIG. 10a) were tested by ELISA.

[3] = biological target: T3, recombinant human clec14a CTLD Fc fusion protein (hCTLD-Fc) (human, UniProt Q86T13 31-172); assay: ELISA, coated hCTLD-Fc (25 nM), 67 nM IgG
T3 construct: also called human CTLD-Fc; wtCTLD-Fc; not shown: hinge and CH2-CH3 domain of human IgG1, encoded 3' of the cloning site of the modified pCEP4 vector
T3 sequence: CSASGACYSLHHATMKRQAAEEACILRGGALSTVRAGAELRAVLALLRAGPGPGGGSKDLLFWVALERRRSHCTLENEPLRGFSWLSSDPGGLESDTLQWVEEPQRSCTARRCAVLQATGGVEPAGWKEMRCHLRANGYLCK
Experimental: as §1

[4] = biological target: T1, recombinant mouse clec14a CTLD Fc …; assay: phage enzyme immunoassay (phage ELISA) on mCTLD-Fc
Experimental: (§2) A human synthetic scFv antibody library was precleared of Fc binders and screened by alternative biopanning with recombinant hCTLD-Fc or mCTLD-Fc. b-d. Ninety-six phage clones (1-96) displaying scFv were randomly selected and the supernatants were analyzed by phage ELISA. Reactivity of the selected scFv clones to human and mouse CTLDs was assayed by measuring absorbance at 450 nm. Arrows indicate scFv clones reactive to hCTLD-Fc (▪, black) and mCTLD-Fc (▪, grey), and not reactive to Fc (□). BSA ( ) served as a background control.
(§3) Three rounds of biopanning were carried out with immunotubes (Immuno™ tube maxisorp, Nunc, Rochester, N.Y., USA) or magnetic beads (Dynabeads M-270 epoxy, Invitrogen) coated with 4 μg recombinant human (hCTLD-Fc) or mouse (mCTLD-Fc) fusion protein to select clones with cross-species reactivity, as described previously (Barbas C F. Phage display: a laboratory manual. Cold Spring Harbor, N.Y.: Cold Spring Harbor Laboratory Press; 2001; Vestweber D. Lymphocyte trafficking through blood and lymphatic vessels: more than just selectins, chemokines and integrins. European Journal of Immunology. 2003; 33(5):1361-4). Ninety-six phage clones were randomly selected from colonies grown on output plates and tested for reactivity to human and mouse CTLDs by phage enzyme immunoassay. DNA of the final scFv clones was sequenced and classified as four scFv clones identified having different complementarity determining region sequences.

[5] = biological target: T3, recombinant human clec14a CTLD Fc …; assay: phage enzyme immunoassay (phage ELISA) on hCTLD-Fc
Experimental: as §2
as §3, with “DNA of the final scFv clones was sequenced and classified as four scFv clones identified having different complementarity determining region sequences.” left out

B1: clec14a-CTLD IgG clone 1 (antibody, V domains shown)
VH: EVQLLESGGGLVQPGGSLRLSCAASGFTFSGYDMSWVRQAPGKGLEWVSGIYPDGGNTYYADSVKGRFTISRDNSKNTLYLQMNSLRAEDTAVYYCARGATWWVLGPFDYWGQGTLVTVSS
VL: QSVLTQPPSASGTPGQRVTISCTGSSSNIGNNSVTWYQQLPGTAPKLLIYADSHRPSGVPDRFSGSKSGTSASLAISGLRSEDEADYYCGAWDDSLSGYVFGGGTKLTVL
notes: scFv converted to IgG; Lambda light chain, detected with anti-human lambda antibody
[1]
  binding result: binds
[2]
  binding result: binds

B2: clec14a-CTLD IgG clone 2 (antibody, V domains shown)
VH: EVQLLESGGGLVQPGGSLRLSCAASGFTFSSYDMSWVRQAPGKGLEWVSVISPDSSSTYYADSVKGRFTISRDNSKNTLHLQMNSLRAEDTAVYYCARHTGWQSRPHTYYDYGMDVWGQGTLVTVSS
VL: B1 VL with T23S, S33A, A51S, S53N, A91T, D94A
notes: Lambda light chain
[1]
  binding result: binds
[2]
  binding result: binds

B3: clec14a-CTLD IgG clone 3 (antibody, V domains shown)
VH: EVQLLESGGGLVQPGGSLRLSCAASGFTFSDYYMSWVRQAPGKGLEWVSLISYDGGSTYYADSVKGRFTISRDNSKNTLYLQMNSLRAEDTAVYYCARSNDWFDYWGQGTLVTVSS
VL: B1 VL with T23S, N31S, S33N, T35Y, A51Y, H54Q, G98A
notes: Lambda light chain
[3]
  binding result: binds
[1]
  binding result: binds

B4: scFv clone 1 (phage-displayed) (scFv, V domains shown)
VH: B1 VH
VL: B1 VL
[4]
  binding result: binds

B5: scFv clone 2 (phage-displayed) (scFv, V domains shown)
VH: B2 VH
VL: B1 VL with T23S, S33A, A51S, S53N, A91T, D94A
[4]
  binding result: binds

B6: scFv clone 3 (phage-displayed) (scFv, V domains shown)
VH: B3 VH
VL: B1 VL with T23S, N31S, S33N, T35Y, A51Y, H54Q, G98A
[5]
  binding result: binds
[4]
  binding result: binds
